Reference: patent US20260258149A1
Positions count from the first letter of the chain named.

B1: humanized anti-STn antibody clone V3 (antibody, V domains shown)
VH: QVQLQESGPGLVKPSQTLSLTCSVIGYSITSGYYWNWIRQPPGKGLEWIGSINYDGSNIYNPSLKDRVTISRDTSKNQFSLKLSSVTAADTAVYYCARGGDYWGQGTTVTVSS
VL: EIVLTQSPATLSLSPGERATLSCSASSSVSYMHWFQQKPGQAPRRWIYDTSKRATGVPARFSGSGSGTDYTLTISSLEPEDFAAYYCQQWSSDPPMLTFGGGTKLEIK
B2: humanized anti-STn antibody clone V2 (antibody, V domains shown)
VH: B1 VH
VL: B1 VL with E1D, T10I, P39S, R44K, R53L, T55S, P79A
B3: humanized anti-STn antibody clone V1 (antibody, V domains shown)
VH: B1 VH with S23T, D66S
VL: B1 VL

molecular target: BSA-STn; assay: SPR, BSA-STn-serine immobilised on the chip as ligand, antibody injected as analyte

Kd [nM] | koff [s⁻¹] | kon [M⁻¹ s⁻¹] | Binder
33.2 | 0.00568 | 171000 | B1
39.4 | 0.00519 | 132000 | B2
31.7 | 0.00553 | 174000 | B3
